From article PMC10720983 come the findings set out here.

This experiment has as its target DtpM (dithiolopyrrolone methyltransferase) (Saccharothrix algeriensis). Description: SEC-MALS.

In general, stoichiometry N refers to a count of units in the complex or per binding partner. Turning to “DtpM (dithiolopyrrolone methyltransferase) (enzyme)”, the stoichiometry N is 2.
